Results taken from PMC8809517, “Cofactor-independent RNA editing by a synthetic S-type PPR protein”.

T1: GFP-9S library array, motif 4 ND N98P;D124F (synthetic construct, N98P;D124F)
T1 chain: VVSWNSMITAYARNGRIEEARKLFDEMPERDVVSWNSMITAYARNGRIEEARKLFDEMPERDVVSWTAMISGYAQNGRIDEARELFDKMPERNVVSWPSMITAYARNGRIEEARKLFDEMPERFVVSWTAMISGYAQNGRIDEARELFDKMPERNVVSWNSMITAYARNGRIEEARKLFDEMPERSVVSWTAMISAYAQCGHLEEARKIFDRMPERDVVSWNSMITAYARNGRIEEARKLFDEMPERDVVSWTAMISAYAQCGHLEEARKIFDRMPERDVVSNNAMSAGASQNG

T2: GFP-9S library array, motif 4 ND N98P;D124W (synthetic construct, N98P;D124W)
T2 chain: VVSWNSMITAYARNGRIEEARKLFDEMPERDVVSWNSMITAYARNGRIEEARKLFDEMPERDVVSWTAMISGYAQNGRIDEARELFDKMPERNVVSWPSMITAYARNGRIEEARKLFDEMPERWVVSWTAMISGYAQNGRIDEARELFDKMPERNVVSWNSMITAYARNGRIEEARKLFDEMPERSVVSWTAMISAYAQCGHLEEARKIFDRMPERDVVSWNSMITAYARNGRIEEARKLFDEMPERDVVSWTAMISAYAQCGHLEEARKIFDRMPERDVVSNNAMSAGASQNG

T3: GFP-9S library array, motif 4 ND N98S;D124F (synthetic construct, N98S;D124F)
T3 chain: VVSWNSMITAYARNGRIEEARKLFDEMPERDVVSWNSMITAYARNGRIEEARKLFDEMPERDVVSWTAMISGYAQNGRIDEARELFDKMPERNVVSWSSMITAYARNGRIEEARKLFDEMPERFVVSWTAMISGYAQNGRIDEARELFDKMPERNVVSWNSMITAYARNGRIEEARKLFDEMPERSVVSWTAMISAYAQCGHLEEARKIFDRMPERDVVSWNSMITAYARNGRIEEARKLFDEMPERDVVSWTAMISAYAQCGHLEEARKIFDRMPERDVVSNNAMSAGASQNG

T4: GFP-9S library array, motif 4 ND N98I;D124W (synthetic construct, N98I;D124W)
T4 chain: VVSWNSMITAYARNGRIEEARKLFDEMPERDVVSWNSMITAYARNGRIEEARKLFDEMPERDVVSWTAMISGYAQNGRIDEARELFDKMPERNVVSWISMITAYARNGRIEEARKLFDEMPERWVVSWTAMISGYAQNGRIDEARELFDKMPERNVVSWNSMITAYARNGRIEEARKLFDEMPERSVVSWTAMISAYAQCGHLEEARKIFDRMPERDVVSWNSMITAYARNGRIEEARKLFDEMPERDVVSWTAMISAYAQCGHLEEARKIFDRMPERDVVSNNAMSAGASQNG

T5: GFP-9S library array, motif 4 ND N98Q;D124Q (synthetic construct, N98Q;D124Q)
T5 chain: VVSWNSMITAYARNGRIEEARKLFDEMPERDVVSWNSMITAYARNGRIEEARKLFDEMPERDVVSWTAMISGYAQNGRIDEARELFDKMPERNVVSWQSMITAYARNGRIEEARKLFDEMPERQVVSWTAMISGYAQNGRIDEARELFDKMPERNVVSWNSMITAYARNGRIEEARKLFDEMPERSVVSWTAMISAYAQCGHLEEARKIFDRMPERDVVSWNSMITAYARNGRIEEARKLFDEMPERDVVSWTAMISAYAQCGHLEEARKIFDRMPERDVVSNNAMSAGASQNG


What was measured:
Assay in all cases: high-throughput RNA pulldown from lysate on Ni-NTA beads; HRP: 50 mM Tris pH 8, 150 mM NaCl, 1 mM beta-mercaptoethanol, 50 ug/ml BSA, 3 ug/ml yeast RNA, 0.5% heparin; ITC and FP: Tris pH 8, 200 mM KCl, 5% glycerol; MST: 50 mM Tris pH 8, 200 mM NaCl, 1 mM DTT, BSA, heparin, 0.05% Tween 20
Conditions in all cases: tags: N-terminal His-eGFP
[1] = biological target: T1, GFP-9S library array, motif 4 ND …
[2] = biological target: T2, GFP-9S library array, motif 4 ND …
[3] = biological target: T3, GFP-9S library array, motif 4 ND …
[4] = biological target: T4, GFP-9S library array, motif 4 ND …
[5] = biological target: T5, GFP-9S library array, motif 4 ND …

| Binder | Kd ([1]; label: 5' Cy5) [nM] | Kd ([2]; label: 5' Cy5) [nM] | Kd ([3]; label: 5' Cy5) [nM] | Kd ([4]; label: 5' Cy5) [nM] | Kd ([5]; label: 5' Cy5) [nM] | Kd ([1]; label: 5' IRDye 800CW) [nM] | Kd ([2]; label: 5' IRDye 800CW) [nM] | Kd ([3]; label: 5' IRDye 800CW) [nM] | Kd ([4]; label: 5' IRDye 800CW) [nM] | Kd ([5]; label: 5' IRDye 800CW) [nM] |
| --- | --- | --- | --- | --- | --- | --- | --- | --- | --- | --- |
| AUUAGACGUGA (ssRNA) [Cy5-rpoA-G] | 125 | 77.7 | 77.7 | 98.3 | 95.5 | – | – | – | – | – |
| AUUAUACGUGA (ssRNA) [IR-rpoA-U] | – | – | – | – | – | 290 | 81.9 | 171 | 136 | 123 |
| AUUACACGUGA (ssRNA) [Cy5-rpoA] | 134 | 69.3 | 39 | 74.5 | 118 | – | – | – | – | – |
| AUUAAACGUGA (ssRNA) [IR-rpoA-A] | – | – | – | – | – | 245 | 44.6 | 76.7 | 252 | 167 |
